Laboratory results from patent US11998609B2, “Self-assembling antiviral prodrugs” (priority 2021, dated 2024).
Residues, ends and D or L forms follow the SMILES beside them. *: point of attachment. X1 = C[C@H](Cn1cnc2c(N)ncnc21)OCP(=O)(O)OCCS*; Palmitoyl = CCCCCCCCCCCCCCCC(=O)*

How the values were obtained:
[1] = In vitro prodrug release from TFV-PA hydrogels; assay type: physicochemical; conditions: day 30, in vitro
Description: To study gel release, 5 mM and 10 mM solutions of TFV-PA2 and TFV-PA3 were prepared using deionized water and allowed to age at RT for 48 hours. 45 μL of each solution was aliquoted into three 0.5 mL microcentrifuge tubes and 5 μL of 10× PBS was added to each vial to form a hydrogel with a final concentration of 1× PBS. Gels were allowed to set for 5-10 minutes before 60 μL of 1× PBS was added to the surface as the release media. The vials were then allowed to age at 37° C. Every 2 days, 50 μL of gel release supernatant was collected and replaced with an equal volume of fresh 1× PBS. Samples were frozen and stored at −20° C. for future analysis by RP-HPLC. On select days, 5 μL of release supernatant was collected 24 hours after supernatant exchange and used to prepare a negatively stained transmission electron microscope grid for analysis with the Talos transmission electron microscope. The grid was prepared as described above, except the sample was blotted with 5 μL deionized water (wicked immediately) after the sample was wicked away to remove excess salts from the PBS. Once the release experiment was complete, samples were thawed and 1-2 mg of TCEP was added to 25 μL sample solution and an equal volume of acetonitrile, then vortexed and sonicated at 37° C. for 10 minutes to ensure complete cleavage of the TFV moiety from the TFV-PAs. […]

[2] = Stability of TFV-PAs and redox triggered release of free TFV (with/without DTT); assay type: in vitro ADME; conditions: 37° C.; for prodrug stability without DTT: 100 μM in 1× PBS, absence of DTT; for TFV released: 100 μM, 10 mM DTT, 1× PBS
Description: Stability of the TFV-PAs and redox triggered release of free TFV was assessed by aging TFV-PA solutions in the presence and absence of 10 mM dithiothreitol (DTT). 200 µM solutions of TFV-PA2 and TFV-PA3 solutions were prepared using deionized H2O and allowed to age at RT for 24 hours. A 20 mM solution of DTT was prepared by diluting a stock 1 M DTT solution with 2× phosphate buffered solution (PBS). 500 μL of 2× PBS was added to an equal volume of each TFV-PA solution to give the DTT negative samples with a final TFV-PA concentration of 100 μM in 1× PBS. 500 μL of 20 mM DTT solution was added to an equal volume of each TFV-PA solution to give the DTT positive samples with a final TFV-PA concentration of 100 μM and 10 mM DTT in 1× PBS. Each experimental condition was prepared in triplicate. Solutions were allowed to age at 37° C. and 50 μL samples were collected at predetermined time points (0, 1, 2, 4, 8, 12, 24, 48, and 72 h), flash frozen in liquid nitrogen, and then stored in a −20° C. freezer. 2 μL of hydrochloric acid was added to the DTT positive samples upon collection to quench the reaction. Samples were thawed and immediately analyzed using the Agilent Infinity II RP-HPLC. The relative proportions of remaining TFV-PA were determined using the ratio of the AUC of the TFV-PA peak in the 260 nm chromatograph to that of the 0 hour samples. For select samples, 1 μL of solution was diluted in 900 μL MeOH and 100 μL 0.1% aq. formic acid and subjected to ESI MS to identify the molecules in the sample.

HBV = assay type: cell-based, hepatitis B virus; conditions: HepAD38 cells, qPCR of cellular supernatant; FIG. 5 legend; read-out: IC50, reduction of HBV production
Description: Anti-HBV efficacy was evaluated on HepAD38 cells, using an adaptation of a procedure described in Ladner, Antimicrob. Agents Chemother. 41: 1715-20, 1997, incorporated herein by reference. HepAD38 cells were plated on collagen coated 96-well flat-bottomed plates at a density of 6×10^4 cells/well and grown for 3 days in the presence of 200 μL of Ham's F-12K (Kaighn's) Medium supplemented with 10% fetal bovine serum (FBS), 1% of an antibiotic solution (penicillin and streptomycin), and 0.3 mg/mL tetracycline at 37° C. in 5% carbon dioxide. On day zero the cells were washed with PBS and treated with tetracycline-free F-12K medium containing TFV, TFV-PA2, or TFV-PA3 (180 μL of medium supplemented with 20 μL of 10× concentration therapeutic solution to give 200 μL of medium at the final therapeutic concentration). Each therapeutic was screened at a minimum of five concentrations in quadruplicate. Water treated cells (180 μL of medium supplemented with 20 μL of H2O) were used as the negative control. On day three the medium was removed and replaced with 200 μL of fresh tetracycline-free medium containing the test compound at the appropriate concentration. […] HBV DNA was quantified by qPCR, using Integrated DNA Technologies PrimeTime Gene Expression Master Mix (Integrated DNA Technologies, Coralville, IA) and HBV TaqMan primer/probe (20×, Assay ID Vi03453405_s1, ThermoFisher Scientific, Pittsburgh, PA). A serial dilution of gBlocks Gene Fragments (Integrated DNA Technologies, Coralville, IA) of known HBV copy number was used as the standard for the absolute quantification of DNA copy number from cycle threshold values. […] Percent HBV production for each therapeutic concentration was determined based on average number of copies of HBV DNA produced by water treated cells and averaged between the three biological repeats of the assay before being plotted against concentration. […]

[3] = cited from earlier work
[4] = In vivo pharmacokinetics and biodistribution
Description: Samples were dried under a N2 stream, reconstituted in 100 μl of 80% v/v LC-MS grade MeOH/H2O. 10 μl of the sample solution was injected into Waters Acquity/Xevo-G2 UPLC/MS system (Milford, MA) for analysis.
For tissue analysis, an optimized amount of tissue sample was processed using a tissue homogenizer in 5 volumes of 90% v/v LC/MS grade MeCN/H2O. 100 μL Tissue homogenate was mixed with 90 μL of 90% v/v LC/MS grade MeCN/H2O, 10 μL of LC-MS-grade water, and 10 μL 500 ng/ml Emtricitabine solution (as IS). After extraction, 10 μl of the sample solution was injected into Waters Acquity/Xevo-G2 UPLC/MS system (Milford, MA) for analysis.

## CCCCCCCCCCCCCCCC(=O)N[C@H](C(=O)N[C@H](C(=O)N[C@H](C(=O)N[C@@H](CSSCCOP(=O)(O)CO[C@H](C)Cn1cnc2c(N)ncnc21)C(=O)N[C@@H](CCC(=O)O)C(=O)O)C(C)C)C(C)C)C(C)C [TFV-PA3] (Palmitoyl-VVVC(X1)E-OH)
[1]
  initial prodrugs remaining in hydrogel: more than 80%
[2]
  prodrug stability without DTT: stable at 37 °C and in 1× PBS for 3 days
[2]; after 4 hours
  TFV released: more than 70%
[2]; by 24 hours
  TFV released: all TFV released
HBV
  IC50: 250 nM

## C[C@H](Cn1cnc2c(N)ncnc21)OCP(=O)(O)O [TFV, tenofovir, reference compound]
HBV
  IC50: 1100 nM
[3]
  log P: −2.5

## CCCCCCCCCCCCCCCC(=O)N[C@H](C(=O)N[C@H](C(=O)N[C@@H](CSSCCOP(=O)(O)CO[C@H](C)Cn1cnc2c(N)ncnc21)C(=O)N[C@@H](CCC(=O)O)C(=O)O)C(C)C)C(C)C [TFV-PA2] (Palmitoyl-VVC(X1)E-OH)
[2]
  prodrug stability without DTT: stable at 37 °C and in 1× PBS for 3 days
[2]; after 1 hour
  TFV released: more than 90%
[2]; by 24 hours
  TFV released: all TFV released
HBV
  IC50: 1500 nM

## Nc1ccn([C@@H]2CS[C@H](CO)O2)c(=O)n1 [3TC, 2′,3′-Dideoxy-3′-Thiacytidine]
[4]; after three days, mice
  drug levels after free drug administration: below detection
[4]; male, Balb/cJ, mouse, in vivo, sc, 75 mg/kg
  MRT: 50.4 h
